# Reference: patent US20060067886A1, “Gastrin receptor-avid peptide conjugates” (priority 1997, published 2006)
# “And” between values parts separate entries of the source, which are not always exact repeats. Identical values can stand only once.
# Key:
# [1] = system: PC-3 human tumor xenografts; assay: in vivo
# Method: In vivo pharmacokinetic studies in human tumor bearing SCID mice. […] The xenograft models were produced by bilateral flank inoculation of 5×10^6 cells (PC-3 or MDA-MB-231 cells) per site. Four to six weeks post inoculation, palpable tumors were observed. At this point, the mice were injected with 4 μCi of the complex in […] of isotonic saline via the tail vein. The mice were euthanized and tissues and organs were excised from the animals at selected times post-injection (p.i.), including 15 minutes, 30 minutes, 1 hour, 4 hours, 24 hours, 48 hours, and 72 hours p.i. Subsequently, the tissues and organs were weighed and counted in a NaI well counter and the percent injected dose (% ID) and % ID/g of each organ or tissue calculated.
# The mice were injected with 4 μCi of the complex in 100 μL of isotonic saline via the tail vein. The mice were euthanized by cervical dislocation. Tissues and organs were excised from the animals following at 1 hour, 4 hour, and 24 hours post-injection (p.i.). Subsequently, the tissues and organs were weighed and counted in a NaI well counter and the percent injected dose (% ID) and % ID/g of each organ or tissue calculated.
# [2] = Stability of 177Lu conjugate (RCP, HPLC recovery); assay type: physicochemical; settings: wide range of pH values, 24 hours
# Method: Under identical chromatographic conditions, DOTA-8-Aoc-BBN[7-14]NH2 has a retention time of 20.5 minutes, allowing for peak purification of the radiolabeled conjugate.
# To 50 μl (3.4×10^−8 mols) of DOTA-8-Aoc-BBN[7-14]NH2 in 50 μL of 0.2M Ammonium Acetate was added 150 μL of 0.4M Ammonium Acetate. To this solution was added 50 μL of 177LuCl3 (2 mCi in 0.05N HCl, Missouri University Research Reactor). The solution was allowed to incubate at […] for 1 hour, after which […] of 0.002M EDTA was added in order to scavenge uncomplexed Lutetium. Quality control of the final product was determined by reversed-phase HPLC. Peak purification of the labeled species was performed by collecting the sample from the HPLC eluant, into a solution of 1 mg/mL bovine serum albumin/0.1M Na2HPO4. All further analyses were carried out using the HPLC-purified products.
# HPLC analysis of each of the new compounds was performed using an analytical C-18 reversed phase column (Phenomenex, 250×4.6 mm, 5 μm). The mobile phase consisted of a linear gradient system, with solvent A corresponding to 100% water with 0.1% trifluoroacetic acid and solvent B corresponding to 100% acetonitrile with 0.1% trifluoroacetic acid. […]
# [3] = Biodistribution of radiometal-DOTA-BBN conjugates in CF1 normal mice; settings: 1 hour post-injection
smiles,measurement,setting,value
CSCC[C@H](NC(=O)[C@H](CC(C)C)NC(=O)[C@H](Cc1cnc[nH]1)NC(=O)CNC(=O)[C@@H](NC(=O)[C@H](C)NC(=O)[C@H](Cc1c[nH]c2ccccc12)NC(=O)[C@H](CCC(N)=O)NC(=O)CCCCCCCNC(=O)CN1CCN(CC(=O)O)CCN(CC(=O)O)CCN(CC(=O)O)CC1)C(C)C)C(N)=O [177Lu-DOTA-8-Aoc-BBN[7-14]NH2] [metal not drawn],"Avg % ID, Blood",[1]; 1 hr,0.62±0.44 % ID
same,"Avg % ID, Carcass",[1]; 1 hr,6.18 ± 1.01 % ID
same,"Avg % ID, L. Intestine",[1]; 1 hr,3.64 ± 0.72 % ID
same,"Avg % ID, Muscle",[1]; 1 hr,0.01 + 0.02 % ID
same,"Avg % ID, Pancreas",[1]; 1 hr,9.70 ± 1.12 % ID
same,"Avg % ID, S. Intestine",[1]; 1 hr,8.20 ± 1.72 % ID
same,"Avg % ID, Stomach",[1]; 1 hr,0.61 ± 0.09 % ID
same,"Avg % ID, Tumor",[1]; 1 hr,1.15 ± 0.72 % ID
same,"Avg % ID, Urine",[1]; 1 hr,67.41±2.45 % ID
same,"Avg % ID/gm, Heart",[1]; 1 hr,0.15 ± 0.22 % ID/gm
same,"Avg % ID/gm, Kidney",[1]; 1 hr,4.70 ± 0.95 % ID/gm
same,"Avg % ID/gm, L. Intestine",[1]; 1 hr,3.29 ± 0.61 % ID/gm
same,"Avg % ID/gm, Liver",[1]; 1 hr,0.30 ± 0.05 % ID/gm
same,"Avg % ID/gm, Lung",[1]; 1 hr,0.18 ± 0.09 % ID/gm
same,"Avg % ID/gm, Muscle",[1]; 1 hr,0.11 ± 0.13 % ID/gm
same,"Avg % ID/gm, Pancreas",[1]; 1 hr,38.53 ± 3.61 % ID/gm
same,"Avg % ID/gm, S. Intestine",[1]; 1 hr,5.60 ± 0.46 % ID/gm
same,"Avg % ID/gm, Spleen",[1]; 1 hr,0.33 ± 0.51 % ID/gm
same,"Avg % ID/gm, Stomach",[1]; 1 hr,1.38 ± 0.52 % ID/gm
same,"Avg % ID/gm, Tumor",[1]; 1 hr,4.22±1.09 % ID/gm
same,"Avg % ID, Blood",[1]; 4 hrs,0.12 ± 0.11 % ID
same,"Avg % ID, Carcass",[1]; 4 hrs,2.52 ± 1.18 % ID
same,"Avg % ID, Heart",[1]; 4 hrs,0.01 + 0.02 % ID
same,"Avg % ID, Kidney",[1]; 4 hrs,0.61 ± 0.08 % ID
same,"Avg % ID, L. Intestine",[1]; 4 hrs,7.28 ± 4.23 % ID
same,"Avg % ID, Liver",[1]; 4 hrs,0.15 ± 0.03 % ID
same,"Avg % ID, Lung",[1]; 4 hrs,0.05 + 0.09 % ID
same,"Avg % ID, Muscle",[1]; 4 hrs,0.02 + 0.03 % ID
same,"Avg % ID, Pancreas",[1]; 4 hrs,5.23 ± 1.68 % ID
same,"Avg % ID, S. Intestine",[1]; 4 hrs,2.51 ± 0.75 % ID
same,"Avg % ID, Spleen",[1]; 4 hrs,0.05 ± 0.02 % ID
same,"Avg % ID, Stomach",[1]; 4 hrs,0.22 ± 0.06 % ID
same,"Avg % ID, Tumor",[1]; 4 hrs,0.78 ± 0.27 % ID
same,"Avg % ID, Urine",[1]; 4 hrs,79.76 ± 6.48 % ID
same,"Avg % ID/gm, Blood",[1]; 4 hrs,0.08 ± 0.07 % ID/gm
same,"Avg % ID/gm, Heart",[1]; 4 hrs,0.07 ± 0.13 % ID/gm
same,"Avg % ID/gm, Kidney",[1]; 4 hrs,2.18 ± 0.31 % ID/gm
same,"Avg % ID/gm, L. Intestine",[1]; 4 hrs,7.29 ± 3.73 % ID/gm
same,"Avg % ID/gm, Liver",[1]; 4 hrs,0.13 ± 0.02 % ID/gm
same,"Avg % ID/gm, Lung",[1]; 4 hrs,0.11 ± 0.15 % ID/gm
same,"Avg % ID/gm, Muscle",[1]; 4 hrs,0.15 ± 0.21 % ID/gm
same,"Avg % ID/gm, Pancreas",[1]; 4 hrs,22.18 ± 4.66 % ID/gm
same,"Avg % ID/gm, S. Intestine",[1]; 4 hrs,1.93 ± 0.96 % ID/gm
same,"Avg % ID/gm, Spleen",[1]; 4 hrs,0.60 ± 0.36 % ID/gm
same,"Avg % ID/gm, Stomach",[1]; 4 hrs,0.34 ± 0.34 % ID/gm
same,"Avg % ID/gm, Tumor",[1]; 4 hrs,3.03±0.91 % ID/gm
same,"Avg % ID, Blood",[1]; 24 hrs,0.01 + 0.02 % ID
same,"Avg % ID, Carcass",[1]; 24 hrs,2.08 + 3.14 % ID
same,"Avg % ID, Kidney",[1]; 24 hrs,0.17 ± 0.06 % ID
same,"Avg % ID, L. Intestine",[1]; 24 hrs,1.75 ± 0.23 % ID
same,"Avg % ID, Muscle",[1]; 24 hrs,0.02 + 0.03 % ID
same,"Avg % ID, Pancreas",[1]; 24 hrs,1.31 ± 0.45 % ID
same,"Avg % ID, S. Intestine",[1]; 24 hrs,0.67 ± 0.12 % ID
same,"Avg % ID, Spleen",[1]; 24 hrs,0.01 + 0.01 % ID
same,"Avg % ID, Stomach",[1]; 24 hrs,0.09 ± 0.06 % ID
same,"Avg % ID, Tumor",[1]; 24 hrs,0.29 ± 0.18 % ID
same,"Avg % ID, Urine",[1]; 24 hrs,85.9±1.4 % ID and 85.85 ± 1.39 % ID
same,"Avg % ID/gm, Blood",[1]; 24 hrs,0.01 ± 0.01 % ID/gm
same,"Avg % ID/gm, Heart",[1]; 24 hrs,0.06 ± 0.09 % ID/gm
same,"Avg % ID/gm, Kidney",[1]; 24 hrs,0.60 ± 0.20 % ID/gm
same,"Avg % ID/gm, L. Intestine",[1]; 24 hrs,1.90 ± 0.53 % ID/gm
same,"Avg % ID/gm, Lung",[1]; 24 hrs,0.14 ± 0.26 % ID/gm
same,"Avg % ID/gm, Muscle",[1]; 24 hrs,0.10 ± 0.17 % ID/gm
same,"Avg % ID/gm, Pancreas",[1]; 24 hrs,4.97 ± 2.28 % ID/gm
same,"Avg % ID/gm, S. Intestine",[1]; 24 hrs,0.48 ± 0.14 % ID/gm
same,"Avg % ID/gm, Spleen",[1]; 24 hrs,0.08 ± 0.10 % ID/gm
same,"Avg % ID/gm, Stomach",[1]; 24 hrs,0.19 ± 0.13 % ID/gm
same,"Avg % ID/gm, Tumor",[1]; 24 hrs,1.54±1.14 % ID/gm
same,stability of the conjugate (RCP),[2],stability of the conjugate over a wide range of pH values over a time course of 24 hours
same,"Avg % ID, Blood",[3],0.20 ± 0.15 % ID
same,"Avg % ID, Carcass",[3],4.95 ± 1.41 % ID
same,"Avg % ID, Heart",[3],0.02 ± 0.04 % ID
same,"Avg % ID, Kidney",[3],1.62 ± 0.14 % ID
same,"Avg % ID, L. Intestine",[3],4.63 ± 0.57 % ID
same,"Avg % ID, Liver",[3],0.31 ± 0.05 % ID
same,"Avg % ID, Muscle",[3],0.02 ± 0.05 % ID
same,"Avg % ID, Pancreas",[3],7.01 ± 1.42 % ID
same,"Avg % ID, S. Intestine",[3],9.55 ± 2.37 % ID
same,"Avg % ID, Spleen",[3],0.16 ± 0.05 % ID
same,"Avg % ID, Stomach",[3],0.51 ± 0.15 % ID
same,"Avg % ID/gm, Blood",[3],0.14 ± 0.10 % ID/gm
same,"Avg % ID/gm, Heart",[3],0.19 ± 0.36 % ID/gm
same,"Avg % ID/gm, Kidney",[3],4.97 ± 0.71 % ID/gm
same,"Avg % ID/gm, L. Intestine",[3],6.17 ± 0.79 % ID/gm
same,"Avg % ID/gm, Liver",[3],0.23 ± 0.05 % ID/gm
same,"Avg % ID/gm, Lung",[3],0.20 ± 0.21 % ID/gm
same,"Avg % ID/gm, Muscle",[3],0.17 ± 0.39 % ID/gm
same,"Avg % ID/gm, Pancreas",[3],30.83 ± 1.89 % ID/gm
same,"Avg % ID/gm, S. Intestine",[3],6.47 ± 1.24 % ID/gm
same,"Avg % ID/gm, Spleen",[3],1.23 ± 0.59 % ID/gm
same,"Avg % ID/gm, Stomach",[3],1.41 ± 0.44 % ID/gm
